# Biological target: PC4 (UniProt Q6UW60)
# Assay: enzyme inhibition
# Sequence of PC4 (Q6UW60 114-708): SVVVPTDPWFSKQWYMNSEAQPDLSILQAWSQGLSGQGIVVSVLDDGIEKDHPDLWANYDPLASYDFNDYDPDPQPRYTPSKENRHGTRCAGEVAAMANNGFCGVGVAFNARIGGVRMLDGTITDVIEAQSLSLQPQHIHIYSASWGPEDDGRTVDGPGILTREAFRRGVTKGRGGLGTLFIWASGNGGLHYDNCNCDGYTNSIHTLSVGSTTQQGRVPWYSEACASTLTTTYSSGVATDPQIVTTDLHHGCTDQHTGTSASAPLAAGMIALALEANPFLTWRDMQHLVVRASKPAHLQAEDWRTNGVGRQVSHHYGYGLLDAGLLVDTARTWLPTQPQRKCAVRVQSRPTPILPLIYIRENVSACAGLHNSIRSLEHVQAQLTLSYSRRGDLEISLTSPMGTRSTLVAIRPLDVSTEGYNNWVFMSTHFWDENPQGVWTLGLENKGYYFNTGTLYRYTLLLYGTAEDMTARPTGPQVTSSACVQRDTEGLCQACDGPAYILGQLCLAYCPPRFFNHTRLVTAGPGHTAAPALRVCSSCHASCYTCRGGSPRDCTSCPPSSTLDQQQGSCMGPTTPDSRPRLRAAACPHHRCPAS
row,Ki,Substance
1,730 nM,LLLRVKR-NH2
2,330 nM,LLRVKR-NH2
3,630 nM,LRVKR-NH2
4,20800 nM,RVKR-NH2

# From patent publication US20110178027A1
